Assay results from US20090317358A1.

Biological target: human high affinity receptor for IL2 (IL2R) (human) (UniProt P01589)
Test: cell-based or functional assay

UniProt P01589, sequence (P01589 22-272, chain 1 of 3): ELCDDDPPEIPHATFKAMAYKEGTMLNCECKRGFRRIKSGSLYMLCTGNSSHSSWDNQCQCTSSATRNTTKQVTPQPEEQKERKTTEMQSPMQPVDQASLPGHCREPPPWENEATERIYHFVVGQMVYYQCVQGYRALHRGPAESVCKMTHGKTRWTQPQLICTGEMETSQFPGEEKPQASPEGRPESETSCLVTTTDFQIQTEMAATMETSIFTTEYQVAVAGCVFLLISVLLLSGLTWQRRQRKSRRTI
UniProt P01589, sequence (P14784 27-551, chain 2 of 3, further chain): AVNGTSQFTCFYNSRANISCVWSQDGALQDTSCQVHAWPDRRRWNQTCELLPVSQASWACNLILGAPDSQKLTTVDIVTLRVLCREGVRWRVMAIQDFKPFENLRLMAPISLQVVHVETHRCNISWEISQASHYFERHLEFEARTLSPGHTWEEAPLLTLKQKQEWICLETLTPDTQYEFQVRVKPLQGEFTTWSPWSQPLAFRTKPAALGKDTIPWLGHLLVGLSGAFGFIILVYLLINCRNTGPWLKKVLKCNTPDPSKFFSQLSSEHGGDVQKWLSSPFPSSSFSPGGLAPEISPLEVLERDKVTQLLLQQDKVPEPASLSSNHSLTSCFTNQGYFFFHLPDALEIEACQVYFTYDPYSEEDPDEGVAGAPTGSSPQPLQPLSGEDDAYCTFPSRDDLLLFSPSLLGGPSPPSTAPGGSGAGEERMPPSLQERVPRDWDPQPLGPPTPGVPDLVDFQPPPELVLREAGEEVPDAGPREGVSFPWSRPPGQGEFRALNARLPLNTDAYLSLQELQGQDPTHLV
UniProt P01589, sequence (P31785 23-369, chain 3 of 3, further chain): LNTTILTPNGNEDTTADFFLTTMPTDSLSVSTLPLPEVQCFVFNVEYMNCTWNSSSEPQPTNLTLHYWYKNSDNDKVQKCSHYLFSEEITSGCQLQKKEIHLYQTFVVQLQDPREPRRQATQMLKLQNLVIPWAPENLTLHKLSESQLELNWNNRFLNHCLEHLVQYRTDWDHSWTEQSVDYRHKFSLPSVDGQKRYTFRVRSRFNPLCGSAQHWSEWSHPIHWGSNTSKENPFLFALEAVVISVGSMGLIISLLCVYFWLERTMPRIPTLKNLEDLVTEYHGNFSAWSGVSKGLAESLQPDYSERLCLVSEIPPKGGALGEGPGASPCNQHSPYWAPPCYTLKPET

With IL2-Bax chimeric protein the M1, fresh lymphocytes analyzed by FACS, IL2-Bax 1 µg (Experiment No. 1) was 17.5, the M1, fresh lymphocytes analyzed by FACS, IL2-Bax 5 µg (Experiment No. 1) was 24.3 and the M1, fresh lymphocytes analyzed by FACS, IL2-Bax 10 µg (Experiment No. 1) was 42.1. It also gave an M1 - 2, fresh lymphocytes analyzed by FACS, IL2-Bax 1 µg (Experiment No. 1) of 13.5, an M1 - 2, fresh lymphocytes analyzed by FACS, IL2-Bax 5 µg (Experiment No. 1) of 20 and an M1 - 2, fresh lymphocytes analyzed by FACS, IL2-Bax 10 µg (Experiment No. 1) of 35. For the same substance, the M2, fresh lymphocytes analyzed by FACS, IL2-Bax 1 µg (Experiment No. 1) was 4, the M2, fresh lymphocytes analyzed by FACS, IL2-Bax 5 µg (Experiment No. 1) was 4.3 and the M2, fresh lymphocytes analyzed by FACS, IL2-Bax 10 µg (Experiment No. 1) was 9.1. The UL + UR, fresh lymphocytes analyzed by FACS, IL2-Bax 1 µg (Experiment No. 2) was 10.5, the UL + UR, fresh lymphocytes analyzed by FACS, IL2-Bax 10 µg (Experiment No. 2) was 31.6 and the UL, fresh lymphocytes analyzed by FACS, IL2-Bax 1 µg (Experiment No. 2) was 4.98. For the same substance, the UL, fresh lymphocytes analyzed by FACS, IL2-Bax 10 µg (Experiment No. 2) was 14.7, the UR, fresh lymphocytes analyzed by FACS, IL2-Bax 1 µg (Experiment No. 2) was 5.56 and the UR, fresh lymphocytes analyzed by FACS, IL2-Bax 10 µg (Experiment No. 2) was 16.8. For the same substance, the apoptotic cells in fresh human lymphocytes treated with IL2-Bax (FACS) was 2 to 14% and the increase in the percentage of the apoptotic-cell population (sub-G1, FACS), HUT102 cells, highest concentration tested was 3.6 fold.
